Test results: patent US20100015126A1, “Methods of Binding of Cross-Beta Structures By Chaperones” (priority 2006, published 2010)

Experiments:
[1] = target: T1, human BiP (Homo sapiens, UniProt P11021); experiment: Competition ELISA: BiP binding to misfolded proteins under influence of crossbeta binding compounds; conditions: fixed sub-optimal BiP concentration
T1 construct: The human BiP gene except the signal peptide encoding region was obtained from Geneart (Germany); linker […]; made in house; host or cells: HEK 293E cells, transient transfection, PABC674 vector; secreted into the medium
T1 sequence (P11021 19-654): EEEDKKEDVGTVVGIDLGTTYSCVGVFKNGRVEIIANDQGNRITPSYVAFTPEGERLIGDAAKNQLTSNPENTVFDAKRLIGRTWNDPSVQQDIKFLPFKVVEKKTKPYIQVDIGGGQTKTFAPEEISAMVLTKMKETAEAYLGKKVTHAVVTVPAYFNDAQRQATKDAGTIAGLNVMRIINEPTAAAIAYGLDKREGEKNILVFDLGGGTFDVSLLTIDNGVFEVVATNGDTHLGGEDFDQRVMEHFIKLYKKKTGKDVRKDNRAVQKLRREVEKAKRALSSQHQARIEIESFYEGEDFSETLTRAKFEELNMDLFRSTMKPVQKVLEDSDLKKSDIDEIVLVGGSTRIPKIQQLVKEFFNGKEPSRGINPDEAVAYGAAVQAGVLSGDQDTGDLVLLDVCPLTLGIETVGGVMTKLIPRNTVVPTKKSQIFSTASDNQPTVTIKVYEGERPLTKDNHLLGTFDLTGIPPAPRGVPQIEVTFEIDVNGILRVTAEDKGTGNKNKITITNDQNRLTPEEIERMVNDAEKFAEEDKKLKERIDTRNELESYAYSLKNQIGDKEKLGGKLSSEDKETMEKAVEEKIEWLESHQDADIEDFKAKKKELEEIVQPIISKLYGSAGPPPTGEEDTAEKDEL
Method: Binding of chaperones to immobilized (misfolded) protein ligands was determined using an enzyme linked immuno sorbent assay (ELISA) approach. For this purpose 50 μl/well of potential ligands at indicated concentrations or coat buffer only for control and background measurement purposes, were coated overnight at 4° C. or coated for 1 h at room temperature, with motion, in 50 mM NaHCO3 pH 9.6 (coat buffer). In general, ligands were coated at 5 μg/ml, unless stated otherwise. For example, BiP binding peptides 6BB# and oxLDL were coated at 50 μg/ml. Native haemoglobin (Sigma-Aldrich, H7379), albumin, IgIV Gammagard and ovalbumin controls were prepared from lyophilized stocks. The controls were prepared by dissolving lyophilized proteins at 1 mg/ml in PBS upon resuspending by pipetting, followed by a 30 minutes period at the roller device, at room temperature. The protein solutions were centrifuged for 10 minutes at 16,000*g and diluted in coat buffer. After coating the plates were washed at least three times with 50 mM Tris-HCl pH 7.3, 150 mM NaCl, 0.1% v/v Tween20, and blocked with Blocking reagent (Roche Diagnostics, Almere, The Netherlands; 11112589001), for 1 h at room temperature, with motion. Plates were washed three times and incubated in triplicate with indicated chaperone dilution series, at 50 μl/well, for 1 h at room temperature, with constant motion. For HSP90, 5 mM DTT is incorporated in the binding buffer (PBS/0.1% Tween20) to avoid unwanted disulfide bond formation of the HSP90. […] After four wash cycles, secondary antibodies were added to the wells when required, 50 μl/well, for 45′ at room temperature, with motion. RAMPO and SWARPO were used at 3000 times dilution. […] In a second experiment with more immobilized misfolded proteins and controls, the detection of bound HSP90 with the mix of two anti-HSP90 antibodies was achieved by mixing 1:1500 SWARPO with 1:3000 RAMPO. After 5 washes with wash buffer followed by two washes with PBS, binding of antibodies was assessed. […] Plates were read at 450 nm. Triplicates were averaged and standard deviations calculated. […] Subsequently, sub-optimal concentrations of chaperones for binding to misfolded protein ligands are determined, and these concentrations are used for inhibition studies.
In a subsequent study we analysed whether BiP interacts directly with the crossbeta structure, by performing ELISA binding studies with a fixed sub-optimal concentration of BiP and concentration series of crossbeta binding compounds. […]

[2] = Transmission electron microscopy (TEM); type: physicochemical; conditions: magnification 10K
Method: Transmission Electron Microscopy (TEM)
TEM images were collected using a Jeol 1200 EX transmission electron microscope (Jeol Ltd., Tokyo, Japan) at an excitation voltage of 80 kV. For each sample, the formvar and carbon-coated side of a 100-mesh copper or nickel grid was positioned on a 5 μl drop of protein solution for 5 minutes. Afterwards, it was positioned on a 100 μl drop of PBS for 2 minutes, followed by three 2-minute incubations with a 100 μl drop of distilled water. The grids were then stained for 2 minutes with a 100 μl drop of 2% (m/v) methylcellulose with 0.4% uranyl acetate pH 4. Excess fluid was removed by streaking the side of the grids over filter paper, and the grids were subsequently dried under a lamp. Samples were analysed at a magnification of 10K.

B1: dOVA standard: heat-denatured chicken ovalbumin (protein)
chain: GSIGAASMEFCFDVFKELKVHHANENIFYCPIAIMSALAMVYLGAKDSTRTQINKVVRFDKLPGFGDSIEAQCGTSVNVHSSLRDILNQITKPNDVYSFSLASRLYAEERYPILPEYLQCVKELYRGGLEPINFQTAADQARELINSWVESQTNGIIRNVLQPSSVDSQTAMVLVNAIVFKGLWEKAFKDEDTQAMPFRVTEQESKPVQMMYQIGLFRVASMASEKMKILELPFASGTMSMLVLLPDEVSGLEQLESIINFEKLTEWTSSNVMEERKIKVYLPRMKMEEKYNLTSVLMAMGITDVFSSSANLSGISSAESLKISQAVHAAHAEINEAGREVVGSAEAGVDAASVSEEFRADHPFLFCIKHIATNAVLFFGRCVSP
- Influence of K2P tPA on interaction of BiP with misfolded protein ([1]; 10 mM ε-amino caproic acid): −
- Influence of tPA on interaction of BiP with misfolded protein ([1]; 10 mM ε-amino caproic acid): ↓ (a ↓ sign refers to inhibited abolished binding of BiP)
- Influence of Congo red on interaction of BiP with misfolded protein ([1]; concentration series of Congo red): ↓ (a ↓ sign refers to inhibited abolished binding of BiP)
- Influence of ThS on interaction of BiP with misfolded protein ([1]; concentration series of ThS): ↓ (a ↓ sign refers to inhibited abolished binding of BiP)
- Appearance on TEM images [2]: aggregates into non-fibrillar multimers
